The values that follow come from IntAct's records for PubMed 9430655.

B1: Merlin (Homo sapiens), P35240-1 (parent)
chain: MAGAIASRMSFSSLKRKQPKTFTVRIVTMDAEMEFNCEMKWKGKDLFDLVCRTLGLRETWFFGLQYTIKDTVAWLKMDKKVLDHDVSKEEPVTFHFLAKFYPENAEEELVQEITQHLFFLQVKKQILDEKIYCPPEASVLLASYAVQAKYGDYDPSVHKRGFLAQEELLPKRVINLYQMTPEMWEERITAWYAEHRGRARDEAEMEYLKIAQDLEMYGVNYFAIRNKKGTELLLGVDALGLHIYDPENRLTPKISFPWNEIRNISYSDKEFTIKPLDKKIDVFKFNSSKLRVNKLILQLCIGNHDLFMRRRKADSLEVQQMKAQAREEKARKQMERQRLAREKQMREEAERTRDELERRLLQMKEEATMANEALMRSEETADLLAEKAQITEEEAKLLAQKAAEAEQEMQRIKATAIRTEEEKRLMEQKVLEAEVLALKMAEESERRAKEADQLKQDLQEAREAERRAKQKLLEIATKPTYPPMNPIPAPLPPDIPSFNLIGDSLSFDFKDTDMKRLSMEIEKEKVEYMEKSKHLQEQLNELKTEIEALKLKERETALDILHNENSDRGGSSKHNTIKKLTLQSAKSRVAFFEEL
partner: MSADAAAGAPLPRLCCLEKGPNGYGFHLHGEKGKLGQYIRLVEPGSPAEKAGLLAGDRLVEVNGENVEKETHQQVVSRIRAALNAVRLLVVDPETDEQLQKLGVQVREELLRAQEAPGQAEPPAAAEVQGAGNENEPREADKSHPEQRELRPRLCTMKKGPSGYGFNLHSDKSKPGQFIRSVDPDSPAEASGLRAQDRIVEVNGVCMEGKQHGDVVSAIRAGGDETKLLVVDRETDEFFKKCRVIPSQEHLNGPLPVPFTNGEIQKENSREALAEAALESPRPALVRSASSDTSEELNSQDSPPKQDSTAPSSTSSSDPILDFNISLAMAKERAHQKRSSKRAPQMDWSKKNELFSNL

The test covers variants of B1. The following applies: with nhrf1_human NHERF1, O14745.
As to MAGAIASRMSFSSLKRKQPKTFTVRIVTMDAEMEFNCEMKWKGKDLFDLVCRTLGLRETWFFGLQYTIKDTVAWLKMDKKVLDHDVSKEEPVTFHFLAKFYPENAEEELVQEITQHLFFLQVKKQILDEKIYCPPEASVLLASYAVQAKYGDYDPSVHKRGFLAQEELLPKRVINLYQMTPEMWEERITAWYAEHRGRARDEAEMEYLKIAQDLEMYGVYYFAIRNKKGTELLLGVDALGLHIYDPENRLTPKISFPWNEIRNISYSDKEFTIKPLDKKIDVFKFNSSKLRVNKLILQLCIGNHDLFMRRRKADSLEVQQMKAQAREEKARKQMERQRLAREKQMREEAERTRDELERRLLQMKEEATMANEALMRSEETADLLAEKAQITEEEAKLLAQKAAEAEQEMQRIKATAIRTEEEKRLMEQKVLEAEVLALKMAEESERRAKEADQLKQDLQEAREAERRAKQKLLEIATKPTYPPMNPIPAPLPPDIPSFNLIGDSLSFDFKDTDMKRLSMEIEKEKVEYMEKSKHLQEQLNELKTEIEALKLKERETALDILHNENSDRGGSSKHNTIKKLTLQSAKSRVAFFEEL [N220Y], the “effect of a mutation on the interaction” value is recorded as “decreasing interaction”.
